According to patent US20230295310A1 (ABCELLERA BIOLOGICS, published 2023):

Experiments:
human CD3e/d = molecular target: T1, human CD3e/d (human, UniProt P07766 23-126; P04234 22-105); test: SPR (Carterra LSA), mAb on chip
T1 construct: Bought soluble protein; also called hCD3e/d; human CD3/ed (Sino CT038-H2508H)
Experimental: High-throughput surface plasmon resonance (SPR) coupled kinetic experiments were performed on a Carterra LSA® instrument equipped with an HC-30M chip type (Carterra, USA). The instrument uses two microfluidic modules, a single-flow cell (SFC) and a 96 printhead, to deliver samples to the chip surface via back-and-forth cycling of a fixed sample volume. An up to 384-ligand array is generated by docking the MFC onto each of the four nested print block locations in a serial manner.
The purified mAbs were immobilized on a Carterra LSA® HC-30M chip by direct coupling. The chip surface was first activated by flowing a freshly prepared 1:1:1 activation mix of 100 mM MES pH 5.5, 100 mM S-NHS, 400 mM EDC for 7 min. mAbs diluted to 10 μg/mL in 10 mM NaOAc pH 4.25+0.01% TWEEN®20 were then injected and printed onto the chip surface simultaneously using the MFC printhead for 10 min. Finally, the chip surface was quenched by flowing 1 M ethanolamine for 7 min (to block the excess reactive esters), followed by 2 wash steps of 15 s each in 25 mM MES pH 5.5. In addition to expressed and purified mAbs, relevant benchmarks and negative control mAbs were also printed on the chip surface.
The data were analyzed using the Carterra Kinetics analysis software. Briefly, the data were referenced with the interstitial reference spots and double-referenced to a buffer cycle, and then fit globally to a 1:1 Langmuir binding model to determine their apparent association (ka) and dissociation (kd) kinetic rate constants and binding affinity constants (KD).

human CD3 = human CD3 (human, UniProt P07766 23-207; P04234 22-171; P09693 23-182); test: cell-based or functional assay
Sequence of human CD3 (P07766 23-207, chain 1 of 3): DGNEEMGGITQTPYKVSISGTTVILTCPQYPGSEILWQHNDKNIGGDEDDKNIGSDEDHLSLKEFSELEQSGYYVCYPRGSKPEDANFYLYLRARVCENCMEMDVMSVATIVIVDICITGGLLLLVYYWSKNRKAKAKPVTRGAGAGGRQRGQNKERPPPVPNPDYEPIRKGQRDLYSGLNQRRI
Sequence of human CD3 (P04234 22-171, chain 2 of 3): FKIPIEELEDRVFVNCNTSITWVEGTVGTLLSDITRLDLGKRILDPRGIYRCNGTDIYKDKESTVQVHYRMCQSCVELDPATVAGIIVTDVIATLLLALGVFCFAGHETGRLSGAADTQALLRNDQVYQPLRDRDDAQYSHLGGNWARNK
Sequence of human CD3 (P09693 23-182, chain 3 of 3): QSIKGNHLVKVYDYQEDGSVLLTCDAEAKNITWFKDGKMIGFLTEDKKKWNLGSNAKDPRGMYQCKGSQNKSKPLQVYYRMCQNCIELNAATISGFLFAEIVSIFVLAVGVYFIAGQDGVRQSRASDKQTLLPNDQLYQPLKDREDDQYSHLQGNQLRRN

T1 sequence (P07766 23-126, chain 1 of 2): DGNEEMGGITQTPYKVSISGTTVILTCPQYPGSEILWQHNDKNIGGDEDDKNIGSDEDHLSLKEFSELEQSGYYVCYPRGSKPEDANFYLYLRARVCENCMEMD
T1 sequence (P04234 22-105, chain 2 of 2): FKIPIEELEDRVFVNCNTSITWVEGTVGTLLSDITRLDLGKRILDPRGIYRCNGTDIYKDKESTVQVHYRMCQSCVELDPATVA

Row | Binder | Kd (human CD3e/d) [nM] | CD4 EC50 (nM); CD69/CD25 on human T cells, plate-coated antibody (human CD3) [nM] | CD8 EC50 (nM); CD69/CD25 on human T cells, plate-coated antibody (human CD3) [nM]
1 | mAb 140 (antibody, V domains shown, VH and VL only) VH: QVQLVESGGGVVQPGRSLRLSCAASGFTFSTYGMHWVRQAPGKGLEWVAVIWYDGSHKYYADSVKGRFTISRDNSKNTLYLQMNSLRAEDTAVYYCARTGITGTTAYFYFDYWGQGTLVTVSS VL: not shown | 635 |  | 
2 | mAb 115 (antibody, V domains shown) VH: EVQLVESGGGLVKTGGSHRLSCVASGFSFKKAWMNWVRQAPGKGLEWVGRIKRNSDGGTTDYAAPVKGRFILSRDDSKNTLYLQMNSLKTEDTAVYYCTTLDSSSWYVGYYYMDVWGKGTTVTVSS VL: DIQMTQSPSSVSASVGDRVTITCRASQDINNWLAWYQQKPGKAPKILIYTASNLQSGVPSRFSGSGSGTDFTLTISSLQPEDFATYFCQQAHGLPITFGQGTRLEIK |  | 7 | 7.16
3 | mAb 129 (antibody, V domains shown) VH: EVQLVESGGDLVKTGGSLRLSCVASGFSFKKAWMNWVRQAPGKGLEWVGRIKRNTDGGATDYAAPVKDRFTLSRDDSKNTLYLQMNSLKTEDTAVYYCTTLDSSSWYVGYYYMDVWGKGTTVTVSS VL: DIHMTQSPSSVSASLGDRVTFTCRASQDINNWLAWYQQKPGKAPRLLIYTASSLQSGVPSRFSGSGSGTDFTLTISSLQPDDFATYYCQQAHSLPITFGQGTRLGIE |  | 12.5 | 12.5
4 | mAb 117 (antibody, V domains shown) VH: EVQLVESGGGLVKTGGSLRLSCVASGFSFKKAWMNWVRQAPGKGLEWVGRIKRNTDGGTTDYAAPVKGRFTLSRDDSKNTLYLQMNSLKTEDTAVYYCTTLDSSSLYVGYYYMDVWGKGTTVTVSS VL: DIQMTQSPSSVSASVGDRVTITCRASQDINNWLAWYQQKPGKAPKLLIYTASSLQSGVPSRFSGSGSGTDFTLTISSLQPEDFATYYCQQAHSLPITFGQGTRLEIK |  | 6.49 | 6.59
5 | mAb 123 (antibody, V domains shown) VH: DVQLVESGGGTVKTGGSLRLSCVASGFSFKKAWMNWVRQAPGKGLEWVGRIKKNSDDGTADYAAPVKGRFTISRDDSKRTLFLQMNSLQTEDTAVYYCTTLDSSSWFVGYYYMDVWGKGTTVTVSS VL: DIQMTQSPSSVSASVGDRVIITCRASQDINNWLAWYQQKPGKAPKLLIYTASSLQSGVPSRFSGSGSVSDFTLTIDSLQPEDFATYYCQQAHSLPITFGQGTRLEIK |  | 11.7 | 11.6
6 | mAb 127 (antibody, V domains shown) VH: EVQLVESGGGLVKTGGSHRLSCVASGFSFKKAWMNWVRQAPGKGLEWVGRIKRNSDGGTTDYAAPVKGRFILSRDDSKNTLYLQMNSLKTEDTAVYYCTTLDSSSWYVGYYYMDVWGKGTTVTVSS VL: DIQMTQSPSSVSASVGDRVTITCRASQDINNWLAWYQQKPGKAPKILIYTASNLQSGVPSRFSGSGSGTDFTLTISTLQPEDFATYFCQQAHGLPITFGQGTRLEIK |  | 10.2 | 10.3
7 | mAb 130 (antibody, V domains shown) VH: EVQLVESGGGLVKTGGSLRLSCVASGFSFKKAWMNWVRQAPGKGLEWVGRIKRNSDGGATDYAAPVKDRFTLSRDDSKNTLYLQMNSLKTEDTAVYYCTTLDSSSWYVGYYYMDVWGKGTTVTVSS VL: DIHMTQSPSSVSASLGDRVTFTCRASQDINNWLAWYQQRPGKAPKLLIYTASSLQSGVPSRFSGSGSGTDFTLTISSLQPEDFATYYCQQAHSLPITFGQGTRLGIK |  | 10.9 | 10.8
8 | mAb 120 (antibody, V domains shown) VH: EVQLVESGGGLVKTGGSLRLSCVASGFSFKKAWMNWVRQAPGKGLEWVGRIKRNTDGGTADYAAPVKGRFTLSRDDSKKTLFLQMNSLKTEDTAVYYCTTLDSSSYYVGYYYMDVWGKGTTVTVSS VL: DIQMTQSPSSVSASVGDRVTITCRASQDINNWLAWYQQKPGKAPKLLIYTASSLQSGVPSRFSGSGSGTDFTLTIGSLQPEDFATYYCQQAHSLPITFGQGTRLEIK |  | 6.41 | 6.46
9 | mAb 116 (antibody, V domains shown) VH: EVQLVESGGGLVKTGGSLRLSCVASGFSFKKAWMNWVRQAPGKGLEWVGRIKRNSDGGTTDYAAPVKGRFTLSRDDSKNTLYLQMNSLKTEDTAVYYCTTLDSSSWYVGYYYMDVWGKGTTVTVSS VL: DIQMTQSPFSVSASVGDRVTITCRASQDINNWLAWYQQKPGKAPKILIYTASSLQSGVPSRFSGSGSGTDFTLTISSLQPEDFATYYCQQAHSLPITFGQGTRLEIK |  | 6.96 | 7.01
10 | mAb 118 (antibody, V domains shown) VH: EVQLVESGGGLVQPGRSLRLSCAASGFTFDDYTMHWVRQAPGKGLEWVSGISWNSGSIGYADSVKGRFTISRDNAKNSLYLQMNSLRAEDTALYYCSKDSSGYGYYLNYSLDVWGKGTTVTVSS VL: not shown |  | 10.4 | 11.2
11 | mAb 119 (antibody, V domains shown) VH: EVQLVESGGGLVQPGRSLRLSCAASGFTFDDYTMHWVRQAPGKGLEWVSGISWNSGSIGYADSVKGRFTISRDNAKNSLYLQMNSLRAEDTALYYCSKDSSGYGYYLNYSLDVWGKGTTVTVSS VL: EIVMTQSPATLSVSPGERATLSCRASQSVSNLAWYQQKPGQAPRLLIYGASTRATGIPARFSGSGSGTEFTLTISSLQSEDFAVYYCQQYNNWPHFGQGTRLQIK |  | 12.9 | 13.8
12 | mAb 128 (antibody, V domains shown) VH: EVQLVESGGGLVQPGRSLRLSCAASGFTFDDYTMHWVRQAPGKGLEWVSGISWNSGSIGYADSVKGRFTISRDNAKNSLYLQMNSLRAEDTALYYCAKDSSGYGYYYYYSMDVWGKGTTVTVSS VL: EIVMTQSPATLSVSPGERATLSCRASQSVSSNLAWYQQKPGQAPRLLIYGASTRATGIPARFSGSGSGTEFTLTISSLQSEDFAVYYCQLYYNWPHFGQGTRLAIK |  | 11.6 | 11.7
13 | mAb 126 (antibody, V domains shown) VH: EVQLVESGGGLVQPGRSLRLSCAASGFTFNDYTMHWVRQVPGKGLEWVSGISWNSGSIDYADSVKGRFTISRDNAKNSLYLQMNSLRAEDTALYYCAKDSSGYGYYYYYYMDVWGKGTTVTVSS VL: EIVMTQSPATLSVSPGERATLSCRASQSVSINLAWYQQKPGQAPRLLIYGASTRATGIPARFSGSGSGTEFTLTISSLQSEDFAVYYCQLYHNWPHFGQGTRLEIK |  | 10.2 | 11
14 | mAb 121 (antibody, V domains shown) VH: EVQLVESGGGLVQPGRSLRLSCATSGFTFADYTMHWVRQAPGKGLEWVSGISWNSGSIDYADSVKGRFTISRDNAKKSLYLQMNSLRAEDTALYFCAKDSSGYGHYYFYYLDVWGKGTTVTVSS VL: EIVMTQSPGTLSVSPGKRATLSCRASQSVSSNLAWYQQKPGQGPRLLIYSTSTRATGIPARFSGSGSGTEFTLTISSLQSEDSAVYYCQHYNNWPHFGQGTRLEIK |  | 12.3 | 12.3
15 | mAb 171 (antibody, V domains shown, VH and VL only) VH: EVQLVESGGGLVQPGRSLRLSCAASGFTFADYTMHWVRQAPGQGLEWVSGISWNSGSIDYADSVKGRFIISRDNAKKTLYLQMNSLRAEDTALYYCAKDSSGYGHYYFYYLDVWGKGTTVTVSS VL: EIVMTQSPATLSVSPGERATLSCRASQSVSSNLAWYQQKPGQAPRLLIYSTSTRATGIPARFSGSRSGTEFTLTISSLQSEDSAVYYCQQYNNWPHFGQGTRLEIK | 18.4 |  | 
16 | mAb 121 (antibody, V domains shown, VH and VL only) VH: EVQLVESGGGLVQPGRSLRLSCATSGFTFADYTMHWVRQAPGKGLEWVSGISWNSGSIDYADSVKGRFTISRDNAKKSLYLQMNSLRAEDTALYFCAKDSSGYGHYYFYYLDVWGKGTTVTVSS VL: EIVMTQSPGTLSVSPGKRATLSCRASQSVSSNLAWYQQKPGQGPRLLIYSTSTRATGIPARFSGSGSGTEFTLTISSLQSEDSAVYYCQHYNNWPHFGQGTRLEIK | 21 |  | 
17 | mAb 158 (antibody, V domains shown, VH and VL only) VH: EVQLVESGGGLVQPGRSLRLSCAASGFTFADYTMHWVRQVPGKGLEWVSGISWNSGSVDYADSVKGRFTISRDNAKKTLYLQMNSLRAEDTALYYCAKDSSGYGHYYFYYLDVWGKGTTVTVSS VL: EIVMTQSPATLSVSPGERATLSCRATQSVSSNLAWYQQKPGQAPRLLIYSTSTRATGIPARFSGSRSGTEFTLTISSLQSEDSAVYYCQQYNNWPHFGQGTRLEIK | 10.3 |  | 
18 | mAb 161 (antibody, V domains shown, VH and VL only) VH: EVQLVESGGGLVQPGRSLRLSCAASGITFADYTMHWVRQAPGKGLEWVSGISWNSGSIDYADSVKGRFTISRDNAKKTLYLQMNRLRAEDTALYYCAKDSSGYGHYYFYYLDVWGKGTTVTVSS VL: EIVMTQSPATLSVSPGERATLSCRASQSVSNNLAWYQQKPGQAPRLLIYSTSTRATGIPARFSGSRSGTEFTLTISSLQSEDSAVYYCQQYNNWPHFGQGTRLEIK | 24.1 |  | 
